From paper PMC7265302 (Nature Communications, 2020)

Molecular target: MavC (residues 1–385, [change]) (Legionella pneumophila, UniProt Q5ZTL4 1-385)
Assay: crystal structure
Settings: both partners purified

B1: UBE2N (K94A), the UBE2N moiety of the conjugated UBE2N~Ub (enzyme)
chain: MAGLPRRIIKETQRLLAEPVPGIKAEPDESNARYFHVVIAGPQDSPFEGGTFKLELFLPEEYPMAAPKVRFMTKIYHPNVDKLGRICLDILKDAWSPALQIRTVLLSIQALLSAPNPDDPLANDVAEQWKTNEAQAIETARAWTRLYAMNNI
notes: UBE2N, human E2 enzyme
binding result: binds
